Tests used:
HveA(200t) = target: T1, HveA(200t) (UniProt Q92956 39-200); assay: ELISA, peptide on coated HveA(200t), antiserum R11
T1 construct: Purified soluble receptor coated on ELISA plates; also called recombinant HveA; soluble gD receptor HveA
T1 sequence: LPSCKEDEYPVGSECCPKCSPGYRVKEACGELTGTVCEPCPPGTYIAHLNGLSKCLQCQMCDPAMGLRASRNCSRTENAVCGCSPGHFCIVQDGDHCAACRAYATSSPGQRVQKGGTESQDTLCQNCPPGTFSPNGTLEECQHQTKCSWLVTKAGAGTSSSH

HveC(346t) = target: T2, HveC(346t) (UniProt Q15223 31-346); assay: ELISA, peptide on coated HveC(346t), antiserum R11
T2 construct: Purified soluble receptor coated on ELISA plates; also called recombinant HveC; soluble gD receptor HveC
T2 sequence: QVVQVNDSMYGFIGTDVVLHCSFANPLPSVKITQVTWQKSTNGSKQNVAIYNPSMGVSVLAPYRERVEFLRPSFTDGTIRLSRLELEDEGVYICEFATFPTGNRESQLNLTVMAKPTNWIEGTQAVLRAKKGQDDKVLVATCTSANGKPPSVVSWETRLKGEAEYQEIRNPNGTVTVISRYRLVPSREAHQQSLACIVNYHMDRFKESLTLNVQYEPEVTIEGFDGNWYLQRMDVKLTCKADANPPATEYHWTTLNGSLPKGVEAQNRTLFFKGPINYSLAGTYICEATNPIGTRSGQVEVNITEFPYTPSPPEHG

ASLKMADPNRFRGKDLPVLDQ (synthetic peptide) [Polypeptide A1]
binding result (HveA(200t)): no binding (tested: between 1 µM and 1000 µM) | binding result (HveC(346t)): no binding (tested: between 1 µM and 1000 µM)
